The record followed here is patent US20220396631A1 (Novartis, published 2022).

T1: human BCMA (human, UniProt Q02223 1-54, limits assumed)
T1 construct: also called B-cell maturation antigen; TNFRSF17
T1 sequence (looked up): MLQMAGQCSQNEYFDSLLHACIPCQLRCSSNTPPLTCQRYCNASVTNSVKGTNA

B1: PI-61 (antibody, V domains shown)
VH: QVQLQESGGGVVQPGRSLRLSCAASGFTFSSYGMHWVRQAPGKGLEWVAVISYDGSNKYYADSVKGRFTISRDNSKNTLYLQMNSLRAEDTAVYYCGGSGYALHDDYYGLDVWGQGTLVTVSS
VL: QSALTQPASVSGSPGQSITISCTGTSSDVGGYNYVSWYQQHPGKAPKLMIYDVSNRPSGVSNRFSGSKSGNTASLTISGLQAEDEADYYCSSYTSSSTLYVFGSGTKVTVL
notes: also called parental PI-61 antibody; P1-61
B2: H3-7 (antibody, V domains shown)
VH: QVQLQSSEGGVVQPGRSLRLSCAASGFTLSSYGMHWVRQAPGKGLEWVAVISYTGSNKYYADSVKGRFTISRDNSKNTLYLQMNSLRAEDTAVYYCGGSGYEFHEDYYGLDVWGQGTLVTVSS
VL: QSALTQPASVSGSPGQSITISCTGTSSDVGGYNYVSWYQQHPGKAPKLMIYEVSNRLRGVSNRFSGSKFGNTASLTISGLQAEDEADYYCSSYTSSSTLYVFGSGTKVTVL
notes: AB3 family
B3: H2/L2-22 (antibody, V domains shown)
VH: QAQLQSSEGGVVQPGRSLRLSCAASGFTFSSYGMHWVRQAPGKGLEWVAVISYHGSNKYYADSVKGRFTISRDNSKNTLYLQMNSLRAEDTAVYYCGGSGYALHDDYYGLDVWGQGTLVTVSS
VL: QSALTQPASVSGSPGQSITISCTGTSSDVGGYNYVSWYQQHPGKAPKLMIYEVSNRLSGVSNRFSGSKFGNTASLTISGLQAEDEADYYCSSYTSSSTLYVFGSGTKVTVL
notes: AB3 family
B4: H3-13 (antibody, V domains shown)
VH: QVQLQESGGGVVQPGRSLRLSCAASGFTFSSYGMHWVRQAPGKGLEWVAVISYDDAHKYYADSVKGRFTISRDNSKNTLYLQMNSLRAEDTAVYYCGGSGYALHDQYKPVDVWGQGTLVTVSS
VL: QSALTQPASVSGSPGQSITISCTGTSSDVGGYNYVSWYQQHPGKAPKLMIYEVSNRLRGVSNRFSGSKFGNTASLTISGLQAEDEADYYCSSYTSSSTLYVFGSGTKVTVL
notes: AB3 family
B5: H3-10 (antibody, V domains shown)
VH: QVQLQSSGGGVVQPGRSLRLSCAASGFTFSSYGMHWVRQAPGKGLEWVAVISYNDLNKYYADSVKGRFTISRDNSKNTLYLQMNSLRAEDTAVYYCGGSGYEFQGDYYGLDVWGQGTLVTVSS
VL: QSALTQPASVSGSPGQSITISCTGTSSDVGGYNYVSWYQQHPGKAPKLMIYEVSNRLRGVSNRFSGSKFGNTASLTISGLQAEDEADYYCSSYTSSSTLYVFGSGTKVTVL
notes: AB3 family
B6: H3-14 (antibody, V domains shown)
VH: QVQLQGSGGGVVQPGRSLRLSCAASGFTFSSYGMHWVRQAPGKGLEWVAVISYDDAHKYYADSVKGRFTISRDNSKNTLYLQMNSLRAEDTAVYYCGGSGYALHDQYKPVDVWGQGTLVTVSS
VL: QSALTQPASVSGSPGQSITISCTGTSSDVGGYNYVSWYQQHPGKAPKLMIYEVSNRLSGVSNRFSGSKFGNTASLTISGLQAEDEADYYCSSYTSSSALYVFGSGTKVTVL
notes: AB3 family
B7: H3-12 (antibody, V domains shown)
VH: QAQLQSSEGGVVQPGRSLRLSCAASGFTFSSYGMHWVRQAPGKGLEWVAVISYDESNKYYADSVKGRFTISRDNSKNTLYLQMNSLRAEDTAVYYCGGSGYEVDQDYYGLDVWGQGTLVTVSS
VL: QSALTQPASVSGSPGQSITISCTGTSSDVGGYNYVSWYQQHPGKAPKLMIYEVSNRLRGVSNRFSGSKFGNTASLTISGLQAEDEADYYCSSYTSSSTLYVFGSGTKVTVL
notes: AB3 family
B8: H3-9 (antibody, V domains shown)
VH: QVQLQGSGGGVVQPGRSLRLSCAASGFTFSSYGMHWVRQAPGKGLEWVAVISYDDAHKYYADSVKGRFTISRDNSKNTLYLQMNSLRAEDTAVYYCGGSGYALHDQYKPVDVWGQGTLVTVSS
VL: QSALTQPASVSGSPGQSITISCTGTSSDVGGYNYVSWYQQHPGKAPKLMIYEVSNRLRGVSNRFSGSKFGNTASLTISGLQAEDEAYYYCSSYTSSSTLYVFGSGTKVTVL
notes: AB3 family
B9: H3-8 (antibody, V domains shown)
VH: QAQLQGSEGGVVQPGRSLRLSCAASGFTFSSYGMHWVRQAPGKGLEWVAVISYDDAHKYYADSVKGRFTISRDNSKNTLYLQMNSLRAEDTAVYYCGGSGYALHDQYKPVDVWGQGTLVTVSS
VL: QSALTQPASVSGSPGQSITISCTGTSSDVGGYNYVSWYQQHPGKAPKLMIYEVSNRLRGVSNRFSGSKFGNTASLTISGLQAEDEADYYCSSYTSSSTLYVFGSGTKVTVL
notes: AB3 family
B10: H3-11 (antibody, V domains shown)
VH: QVQLQSSEGGVVQPGRSLRLSCAASGFTFSSYGMHWVRQAPGKGLEWVAVISYNDANKYYADSVKGRFTISRDNSKNTLYLQMNSLRAEDTAVYYCGGSGYELRDDYYGLDVWGQGTLVTVSS
VL: QSALTQPASVSGSPGQSITISCTGTSSDVGGYNYVSWYQQHPGKAPKLMIYEVSNRLRGVSNRFSGSKFGNTASLTISGLQAEDEADYYCSSYTSSSTLYVFGSGTKVTVL
notes: AB3 family
B11: H3-15 (antibody, V domains shown)
VH: QVQLQGSGGGVVQPGRSLRLSCAASGFTVSSYGMHWVRQAPGKGLEWVAVISYDDANKYYADSVKGRFTISRDSSKNTLYLQMNSLRAEDTAVYYCGGSGYAYDGDYYGLDVWGQGTLVTVSS
VL: QSALTQPASVSGSPGQSITISCTGTSSDVGGYNYVSWYQQHPGKAPKLMIYEVSNRLGGVSNRFSGSKFGNTASLTISGLQAEDEADYYCSSYTSSSALYVFGSGTKVTVL
notes: AB3 family
B12: CD58 Full ECD (ligand)
chain: SQQIYGVVYGNVTFHVPSNVPLKEVLWKKQKDKVAELENSEFRAFSSFKNRVYLDTVSGSLTIYNLTSSDEDEYEMESPNITDTMKFFLYVLESLPSPTLTCALTNGSIEVQCMIPEHYNSHRGLIMYSWDCPMEQCKRNSTSIYFKMENDLPQKIQCTLSNPLFNTTSSIILTTCIPSSGHSRHRGGGGSHHHHHHHH
notes: Recombinant, made in HEK293 cells
B13: CD58_IgV (ligand)
chain: SQQIYGVVYGNVTFHVPSNVPLKEVLWKKQKDKVAELENSEFRAFSSFKNRVYLDTVSGSLTIYNLTSSDEDEYEMESPNITDTMKFFLYVLESGGGGSHHHHHHHH
notes: Recombinant, made in HEK293 cells; also called CD58 domain 1; IgV domain of CD58 (wild type)
B14: IgV V45C_M114C (ligand)
chain: SQQIYGVVYGNVTFHCPSNVPLKEVLWKKQKDKVAELENSEFRAFSSFKNRVYLDTVSGSLTIYNLTSSDEDEYEMESPNITDTCKFFLYVLESGGGGSHHHHHHHH
notes: Disulfide-stabilised variant
B15: IgV V45C_M105C (ligand)
chain: SQQIYGVVYGNVTFHCPSNVPLKEVLWKKQKDKVAELENSEFRAFSSFKNRVYLDTVSGSLTIYNLTSSDEDEYECESPNITDTMKFFLYVLESGGGGSHHHHHHHH
notes: Disulfide-stabilised variant
B16: IgV V54C_G88C (ligand)
chain: SQQIYGVVYGNVTFHVPSNVPLKECLWKKQKDKVAELENSEFRAFSSFKNRVYLDTVSCSLTIYNLTSSDEDEYEMESPNITDTMKFFLYVLESGGGGSHHHHHHHH
notes: Disulfide-stabilised variant
B17: Human CD2 (receptor)
chain: KEITNALETWGALGQDINLDIPSFQMSDDIDDIKWEKTSDKKKIAQFRKEKETFKEKDTYKLFKNGTLKIKHLKTDDQDIYKVSIYDTKGKNVLEKIFDLKIQERVSKPKISWTCINTTLTCEVMNGTDPELNLYQDGKHLKLSQRVITHKWTTSLSAKFKCTAGNKVSKESSVEPVSCPEKGLD
notes: also called recombinant human CD2; CD2 extracellular domain

One experiment addresses T1, human BCMA. Description: phage display selection.
B1: the binding result was “binds”.

The target of another experiment is T1, human BCMA. Description: affinity maturation of PI-61.
As for B2, the binding result was “binds”.

With B3, the binding result is listed as “binds”.

In the case of B4, the binding result is given as “binds”.

B5: the binding result is reported as “binds”.

Regarding B6, the binding result is reported as “binds”.

B7: the binding result was “binds”.

Turning to B8, the binding result is given as “binds”.

As to B9, the binding result is recorded as “binds”.

Turning to B10, the binding result was “binds”.

As to B11, the binding result was “binds”.

For the next experiment, the target named is B17. Description: isothermal titration calorimetry; 100 uM CD2 titrated into 10 uM CD58 variant in HBS. The method, then:
(§1) To ensure the binding affinity remained uncompromised by the additional of the stabilizing disulfide variance, isothermal calorimetry (ITC) was performed on the resulting recombinant CD58 proteins to determine their apparent KD and binding stoicheometry (n) to recombinant human CD2.
(§2) Briefly, recombinant human CD2 and recombinant human CD58 variants were dialyzed into HEPES-buffered saline (HBS). CD2 was diluted to final concentration of 100 μM, CD58 variants were diluted to 10 μM. CD2 was titrated into 10 μM of CD58 variants via multiple injections and ΔH (kcal/mole) determined using a MicroCal VP-ITC isothermal titration calorimeter (Malvern). Titrations of CD2 into HBS were used as a reference and KD and n determined from the resulting data.
(In general: Isothermal titration calorimetry measures the heat released or taken up as one component is titrated into another.)
Consider B12, for which the “n (binding stoichiometry)” value is 0.92.

Broadly, the Kd is the concentration at which binding is half-saturated. Read a high Kd as weaker binding. For B13, binding was put at a Kd of 610 nM and the “n (binding stoichiometry)” value was 0.96.

In the case of B14, the Kd was 380 nM and the “n (binding stoichiometry)” value worked out at 0.88.

Take B15: the affinity, expressed as Kd, was 880 nM and the “n (binding stoichiometry)” value is 0.97.

For B16, the Kd was found to be 600 nM and the “n (binding stoichiometry)” value came to 0.83.

Another experiment concerns the target B12. The experiment is described as above. Here is the method:
as §1, §2
For the molecule B17, the affinity, expressed as Kd, was 570 nM.
